# Measured values as given in patent US20230312740A1 (VIRTUOSO BINCO, published 2023).
# How the values were obtained:
# Avi-human CD38 ECD [1] = target: T1, Avi-human CD38 ECD (human, UniProt P28907 43-300); assay: ELISA on human CD38 ECD; class C = EC50 >0.5 nM (table legend)
# T1 construct: eluted as a monomer; also called hCD38; huCD38
# Avi-human CD38 ECD [2] = target: T1, Avi-human CD38 ECD; assay: ELISA on human CD38 ECD; class A = EC50 0.02 nM - 0.1 nM (table legend)
# Avi-human CD38 ECD [3] = target: T1, Avi-human CD38 ECD; assay: ELISA on human CD38 ECD; class B = EC50 0.1 nM - 0.5 nM (table legend)
# [4] = target: ICAM1 on the surface of tumor cells (human, UniProt P05362 28-532); assay: cell-based or functional assay
# ICAM1 on the surface of tumor cells, sequence (P05362 28-532): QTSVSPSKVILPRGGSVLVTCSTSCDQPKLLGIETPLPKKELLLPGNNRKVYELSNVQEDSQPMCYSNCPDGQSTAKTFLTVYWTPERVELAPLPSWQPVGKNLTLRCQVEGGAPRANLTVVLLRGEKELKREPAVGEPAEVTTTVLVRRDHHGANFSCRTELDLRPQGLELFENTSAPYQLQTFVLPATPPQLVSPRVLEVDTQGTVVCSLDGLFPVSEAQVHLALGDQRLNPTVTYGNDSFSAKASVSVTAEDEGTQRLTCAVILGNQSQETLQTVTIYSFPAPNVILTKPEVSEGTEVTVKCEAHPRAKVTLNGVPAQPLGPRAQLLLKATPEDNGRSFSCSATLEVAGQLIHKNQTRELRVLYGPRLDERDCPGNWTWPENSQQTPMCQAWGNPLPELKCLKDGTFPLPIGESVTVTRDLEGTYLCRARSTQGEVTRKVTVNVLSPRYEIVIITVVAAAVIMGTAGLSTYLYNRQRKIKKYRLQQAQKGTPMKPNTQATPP
Binder,EC50 (Avi-human CD38 ECD [2]) [nM],also measured
"h18E4-19 HC E95A (antibody, name in Kabat numbering, V domains shown, Alanine scan variant of h18E4-19; Kabat numbers, not linear positions of the entry) VH: EVQLLESGGGLVQPGGSLRLSCAASGFSFNNYWIIWIRQAPGKGLEWVAAIYSPSGDIKYYADWAKGRFTVSKDNSKNTVYLQMNSLRAEDTAVYYCARALSGSSYEGYFESWGQGTLVTV VL: DIQLTQSPSTLSASVGDRVTITCRSSQSVYGHNWLAWYQQKPGKAPKLLMYRASNLASGVPSRFSGSGSGTEFTLTISSVQPDDFATYYCQGYYSGGSYAFGGGTKVEIK",–,EC50 (Avi-human CD38 ECD [1]): > 0.5 nM
"h18E4-19 HC Y100aA (antibody, name in Kabat numbering, V domains shown, Alanine scan variant of h18E4-19; Kabat numbers, not linear positions of the entry) VH: EVQLLESGGGLVQPGGSLRLSCAASGFSFNNYWIIWIRQAPGKGLEWVAAIYSPSGDIKYYADWAKGRFTVSKDNSKNTVYLQMNSLRAEDTAVYYCARELSGSSAEGYFESWGQGTLVTV VL: DIQLTQSPSTLSASVGDRVTITCRSSQSVYGHNWLAWYQQKPGKAPKLLMYRASNLASGVPSRFSGSGSGTEFTLTISSVQPDDFATYYCQGYYSGGSYAFGGGTKVEIK",0.02 to 0.1,–
"h18E4-19 LC G95A (antibody, V domains shown, Alanine scan variant of h18E4-19; Kabat numbers, not linear positions of the entry) VH: EVQLLESGGGLVQPGGSLRLSCAASGFSFNNYWIIWIRQAPGKGLEWVAAIYSPSGDIKYYADWAKGRFTVSKDNSKNTVYLQMNSLRAEDTAVYYCARELSGSSYEGYFESWGQGTLVTV VL: DIQLTQSPSTLSASVGDRVTITCRSSQSVYGHNWLAWYQQKPGKAPKLLMYRASNLASGVPSRFSGSGSGTEFTLTISSVQPDDFATYYCQGYYSGASYAFGGGTKVEIK",0.02 to 0.1,–
"h18E4-19 LC Y91A (antibody, V domains shown, Alanine scan variant of h18E4-19; Kabat numbers, not linear positions of the entry) VH: EVQLLESGGGLVQPGGSLRLSCAASGFSFNNYWIIWIRQAPGKGLEWVAAIYSPSGDIKYYADWAKGRFTVSKDNSKNTVYLQMNSLRAEDTAVYYCARELSGSSYEGYFESWGQGTLVTV VL: DIQLTQSPSTLSASVGDRVTITCRSSQSVYGHNWLAWYQQKPGKAPKLLMYRASNLASGVPSRFSGSGSGTEFTLTISSVQPDDFATYYCQGAYSGGSYAFGGGTKVEIK",–,EC50 (Avi-human CD38 ECD [1]): > 0.5 nM
"h18E4-19 HC G98A (antibody, V domains shown, Alanine scan variant of h18E4-19; Kabat numbers, not linear positions of the entry) VH: EVQLLESGGGLVQPGGSLRLSCAASGFSFNNYWIIWIRQAPGKGLEWVAAIYSPSGDIKYYADWAKGRFTVSKDNSKNTVYLQMNSLRAEDTAVYYCARELSASSYEGYFESWGQGTLVTVSS VL: DIQLTQSPSTLSASVGDRVTITCRSSQSVYGHNWLAWYQQKPGKAPKLLMYRASNLASGVPSRFSGSGSGTEFTLTISSVQPDDFATYYCQGYYSGGSYAFGGGTKVEIK",0.02 to 0.1,–
"h18E4-19 HC G100cA (antibody, name in Kabat numbering, V domains shown, Alanine scan variant of h18E4-19; Kabat numbers, not linear positions of the entry) VH: EVQLLESGGGLVQPGGSLRLSCAASGFSFNNYWIIWIRQAPGKGLEWVAAIYSPSGDIKYYADWAKGRFTVSKDNSKNTVYLQMNSLRAEDTAVYYCARELSGSSYEAYFESWGQGTLVTV VL: DIQLTQSPSTLSASVGDRVTITCRSSQSVYGHNWLAWYQQKPGKAPKLLMYRASNLASGVPSRFSGSGSGTEFTLTISSVQPDDFATYYCQGYYSGGSYAFGGGTKVEIK",–,EC50 (Avi-human CD38 ECD [3]): 0.1 to 0.5 nM
"h18E4-19 LC S95aA (antibody, V domains shown, Alanine scan variant of h18E4-19; Kabat numbers, not linear positions of the entry) VH: EVQLLESGGGLVQPGGSLRLSCAASGFSFNNYWIIWIRQAPGKGLEWVAAIYSPSGDIKYYADWAKGRFTVSKDNSKNTVYLQMNSLRAEDTAVYYCARELSGSSYEGYFESWGQGTLVTV VL: DIQLTQSPSTLSASVGDRVTITCRSSQSVYGHNWLAWYQQKPGKAPKLLMYRASNLASGVPSRFSGSGSGTEFTLTISSVQPDDFATYYCQGYYSGGAYAFGGGTKVEIK",0.02 to 0.1,–
"h18E4-19 LC G94A (antibody, V domains shown, Alanine scan variant of h18E4-19; Kabat numbers, not linear positions of the entry) VH: EVQLLESGGGLVQPGGSLRLSCAASGFSFNNYWIIWIRQAPGKGLEWVAAIYSPSGDIKYYADWAKGRFTVSKDNSKNTVYLQMNSLRAEDTAVYYCARELSGSSYEGYFESWGQGTLVTV VL: DIQLTQSPSTLSASVGDRVTITCRSSQSVYGHNWLAWYQQKPGKAPKLLMYRASNLASGVPSRFSGSGSGTEFTLTISSVQPDDFATYYCQGYYSAGSYAFGGGTKVEIK",–,EC50 (Avi-human CD38 ECD [1]): > 0.5 nM
"h18E4-19 LC Y92A (antibody, V domains shown, Alanine scan variant of h18E4-19; Kabat numbers, not linear positions of the entry) VH: EVQLLESGGGLVQPGGSLRLSCAASGFSFNNYWIIWIRQAPGKGLEWVAAIYSPSGDIKYYADWAKGRFTVSKDNSKNTVYLQMNSLRAEDTAVYYCARELSGSSYEGYFESWGQGTLVTV VL: DIQLTQSPSTLSASVGDRVTITCRSSQSVYGHNWLAWYQQKPGKAPKLLMYRASNLASGVPSRFSGSGSGTEFTLTISSVQPDDFATYYCQGYASGGSYAFGGGTKVEIK",0.02 to 0.1,–
"h18E4-19 HC S102A (antibody, name in Kabat numbering, V domains shown, Alanine scan variant of h18E4-19; Kabat numbers, not linear positions of the entry) VH: EVQLLESGGGLVQPGGSLRLSCAASGFSFNNYWIIWIRQAPGKGLEWVAAIYSPSGDIKYYADWAKGRFTVSKDNSKNTVYLQMNSLRAEDTAVYYCARELSGSSYEGYFEAWGQGTLVTV VL: DIQLTQSPSTLSASVGDRVTITCRSSQSVYGHNWLAWYQQKPGKAPKLLMYRASNLASGVPSRFSGSGSGTEFTLTISSVQPDDFATYYCQGYYSGGSYAFGGGTKVEIK",0.02 to 0.1,–
"h18E4-19 LC Q89A (antibody, V domains shown, Alanine scan variant of h18E4-19; Kabat numbers, not linear positions of the entry) VH: EVQLLESGGGLVQPGGSLRLSCAASGFSFNNYWIIWIRQAPGKGLEWVAAIYSPSGDIKYYADWAKGRFTVSKDNSKNTVYLQMNSLRAEDTAVYYCARELSGSSYEGYFESWGQGTLVTV VL: DIQLTQSPSTLSASVGDRVTITCRSSQSVYGHNWLAWYQQKPGKAPKLLMYRASNLASGVPSRFSGSGSGTEFTLTISSVQPDDFATYYCAGYYSGGSYAFGGGTKVEIK",0.02 to 0.1,–
"h18E4-19 HC S97A (antibody, name in Kabat numbering, V domains shown, Alanine scan variant of h18E4-19; Kabat numbers, not linear positions of the entry) VH: EVQLLESGGGLVQPGGSLRLSCAASGFSFNNYWIIWIRQAPGKGLEWVAAIYSPSGDIKYYADWAKGRFTVSKDNSKNTVYLQMNSLRAEDTAVYYCARELAGSSYEGYFESWGQGTLVTV VL: DIQLTQSPSTLSASVGDRVTITCRSSQSVYGHNWLAWYQQKPGKAPKLLMYRASNLASGVPSRFSGSGSGTEFTLTISSVQPDDFATYYCQGYYSGGSYAFGGGTKVEIK",0.02 to 0.1,–
"h18E4-19 HC L96A (antibody, name in Kabat numbering, V domains shown, Alanine scan variant of h18E4-19; Kabat numbers, not linear positions of the entry) VH: EVQLLESGGGLVQPGGSLRLSCAASGFSFNNYWIIWIRQAPGKGLEWVAAIYSPSGDIKYYADWAKGRFTVSKDNSKNTVYLQMNSLRAEDTAVYYCAREASGSSYEGYFESWGQGTLVTV VL: DIQLTQSPSTLSASVGDRVTITCRSSQSVYGHNWLAWYQQKPGKAPKLLMYRASNLASGVPSRFSGSGSGTEFTLTISSVQPDDFATYYCQGYYSGGSYAFGGGTKVEIK",0.02 to 0.1,–
"h18E4-19 HC Y100dA (antibody, name in Kabat numbering, V domains shown, Alanine scan variant of h18E4-19; Kabat numbers, not linear positions of the entry) VH: EVQLLESGGGLVQPGGSLRLSCAASGFSFNNYWIIWIRQAPGKGLEWVAAIYSPSGDIKYYADWAKGRFTVSKDNSKNTVYLQMNSLRAEDTAVYYCARELSGSSYEGAFESWGQGTLVTV VL: DIQLTQSPSTLSASVGDRVTITCRSSQSVYGHNWLAWYQQKPGKAPKLLMYRASNLASGVPSRFSGSGSGTEFTLTISSVQPDDFATYYCQGYYSGGSYAFGGGTKVEIK",–,EC50 (Avi-human CD38 ECD [1]): > 0.5 nM
"h18E4-19 HC E100bA (antibody, name in Kabat numbering, V domains shown, Alanine scan variant of h18E4-19; Kabat numbers, not linear positions of the entry) VH: EVQLLESGGGLVQPGGSLRLSCAASGFSFNNYWIIWIRQAPGKGLEWVAAIYSPSGDIKYYADWAKGRFTVSKDNSKNTVYLQMNSLRAEDTAVYYCARELSGSSYAGYFESWGQGTLVTV VL: DIQLTQSPSTLSASVGDRVTITCRSSQSVYGHNWLAWYQQKPGKAPKLLMYRASNLASGVPSRFSGSGSGTEFTLTISSVQPDDFATYYCQGYYSGGSYAFGGGTKVEIK",–,EC50 (Avi-human CD38 ECD [1]): > 0.5 nM
"h18E4-19 HC F100eA (antibody, name in Kabat numbering, V domains shown, Alanine scan variant of h18E4-19; Kabat numbers, not linear positions of the entry) VH: EVQLLESGGGLVQPGGSLRLSCAASGFSFNNYWIIWIRQAPGKGLEWVAAIYSPSGDIKYYADWAKGRFTVSKDNSKNTVYLQMNSLRAEDTAVYYCARELSGSSYEGYAESWGQGTLVTV VL: DIQLTQSPSTLSASVGDRVTITCRSSQSVYGHNWLAWYQQKPGKAPKLLMYRASNLASGVPSRFSGSGSGTEFTLTISSVQPDDFATYYCQGYYSGGSYAFGGGTKVEIK",0.02 to 0.1,–
"h18E4-19 HC S99A (antibody, name in Kabat numbering, V domains shown, Alanine scan variant of h18E4-19; Kabat numbers, not linear positions of the entry) VH: EVQLLESGGGLVQPGGSLRLSCAASGFSFNNYWIIWIRQAPGKGLEWVAAIYSPSGDIKYYADWAKGRFTVSKDNSKNTVYLQMNSLRAEDTAVYYCARELSGASYEGYFESWGQGTLVTV VL: DIQLTQSPSTLSASVGDRVTITCRSSQSVYGHNWLAWYQQKPGKAPKLLMYRASNLASGVPSRFSGSGSGTEFTLTISSVQPDDFATYYCQGYYSGGSYAFGGGTKVEIK",0.02 to 0.1,–
"h18E4-19 HC E101A (antibody, name in Kabat numbering, V domains shown, Alanine scan variant of h18E4-19; Kabat numbers, not linear positions of the entry) VH: EVQLLESGGGLVQPGGSLRLSCAASGFSFNNYWIIWIRQAPGKGLEWVAAIYSPSGDIKYYADWAKGRFTVSKDNSKNTVYLQMNSLRAEDTAVYYCARELSGSSYEGYFASWGQGTLVTV VL: DIQLTQSPSTLSASVGDRVTITCRSSQSVYGHNWLAWYQQKPGKAPKLLMYRASNLASGVPSRFSGSGSGTEFTLTISSVQPDDFATYYCQGYYSGGSYAFGGGTKVEIK",0.02 to 0.1,–
"h18E4-19 HC S100A (antibody, name in Kabat numbering, V domains shown, Alanine scan variant of h18E4-19; Kabat numbers, not linear positions of the entry) VH: EVQLLESGGGLVQPGGSLRLSCAASGFSFNNYWIIWIRQAPGKGLEWVAAIYSPSGDIKYYADWAKGRFTVSKDNSKNTVYLQMNSLRAEDTAVYYCARELSGSAYEGYFESWGQGTLVTV VL: DIQLTQSPSTLSASVGDRVTITCRSSQSVYGHNWLAWYQQKPGKAPKLLMYRASNLASGVPSRFSGSGSGTEFTLTISSVQPDDFATYYCQGYYSGGSYAFGGGTKVEIK",0.02 to 0.1,–
"h11F2-6 (antibody, V domains shown) VH: EVQVLESGGGLVQPGGSLRLSCAVSGFSLSSHAMGWVRQAPGKGLEWIGIIGSSDRTYYASWAKGRFTISKDNSKNTVYLQINSPRAEDTAVYYCVRDPYDSYDEGYRLWGQGTLVTVSS VL: DIQMTQSPSTLSASVGDRVTITCQASQSIYRYLSWYQQKPGKAPKFLIYDASKLASGVPSRFSGSGSGTEFTLTISSVQPDDFATYYCQQAYSSGSIDNAFGGGTKVEIK",–,ADCC EC50 on Daudi cells; antibody made in CHO FUT8 -/- (afucosylated) [4]: 0.008 nM; ADCC EC50 on HuNS1 cells; antibody made in CHO FUT8 -/- (afucosylated) [4]: 0.04 nM; ADCC EC50 on NCI-H2291 cells; antibody made in CHO [4]: 0.329 nM; ADCC EC50 on NCI-H2291 cells; antibody made in CHO FUT8 -/- (afucosylated) [4]: 0.019 nM; ADCC EC50 on NCI-H2342 cells; antibody made in CHO [4]: 0.69 nM; ADCC EC50 on NCI-H2342 cells; antibody made in CHO FUT8 -/- (afucosylated) [4]: 0.07 nM; ADCC EC50 on Raji cells; antibody made in CHO FUT8 -/- (afucosylated) [4]: 0.038 nM
